Reference: PMC10206189 (2023)

B1: VHH14-Fc (Fc fusion)
chain: QVQLQESGGGLVQAGGSLRLSCAASGFTLGYYAIGWFRQAPGKEREEVSCINASGGSTFYEDSVKGRFTISRDNAKNTVFLQMNRLKPEDTAVYYCAAACEVVAVGYWGQGTQVTVSA
B2: VHH15-Fc (Fc fusion)
chain: QVQLQESGGGLVQPGGSLRLSCAASGFRLDYYAIGWFRQAPGKEREGVLCISSSGGSINYADSVKGRFTISRDNAKNTVYLQMNSLKPEDTAVYYCGASSYNTQRAECYGMDYWGKGTQVTVSA

Target: T1, mouse Plexin-B1 (20–535)-6xHis (mouse, UniProt Q8CJH3 20-535)
T1 chain: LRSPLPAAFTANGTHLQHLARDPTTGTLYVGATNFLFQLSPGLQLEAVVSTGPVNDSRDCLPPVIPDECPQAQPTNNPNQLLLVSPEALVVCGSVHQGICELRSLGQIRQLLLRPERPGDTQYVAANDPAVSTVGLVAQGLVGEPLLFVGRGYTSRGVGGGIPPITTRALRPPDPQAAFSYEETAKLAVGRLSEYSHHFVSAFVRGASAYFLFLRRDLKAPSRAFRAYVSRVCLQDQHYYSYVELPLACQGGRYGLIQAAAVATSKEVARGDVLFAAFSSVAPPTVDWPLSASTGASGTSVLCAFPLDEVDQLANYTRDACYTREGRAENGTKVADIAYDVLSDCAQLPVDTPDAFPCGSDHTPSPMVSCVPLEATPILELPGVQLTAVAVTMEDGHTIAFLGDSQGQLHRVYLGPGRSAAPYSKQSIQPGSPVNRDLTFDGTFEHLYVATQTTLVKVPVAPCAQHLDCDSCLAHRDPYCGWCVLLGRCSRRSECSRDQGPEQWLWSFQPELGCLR
Test: BLI

Binder	koff
B1	1.66e-05 s⁻¹
B2	0.002 s⁻¹
